Experiments:
[1] = biological target: T1, AAV8 (adeno-associated virus 8); assay: SPR, AAV amine-coupled to CM5 chip;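 further: nanobodies flowed as analyte at seven concentrations spanning 1–100 nM over immobilized AAV (500–800 RU), kinetic constants derived by fitting the binding curves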
T1 construct: also called adeno-associated virus serotype 8
Experimental: (§1) AAV was amine-coupled to a CM5 sensor chip at a density of 500-800 response units (RU). Nanobodies were injected at seven concentrations (1-100 nM) with a flow rate of 45 μL/min, and chip regeneration was performed using glycine-HCl (pH 1.5). Binding curves at different nanobody concentrations were used to calculate kinetic parameters (Kₐ, Kd, KD) (Table 2 and FIG. 2).

[2] = biological target: T2, AAV2 (adeno-associated virus 2, UniProt P03135 1-735); assay: SPR, AAV amine-coupled to CM5 chip;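 further: nanobodies flowed as analyte at seven concentrations spanning 1–100 nM over immobilized AAV (500–800 RU), kinetic constants derived by fitting the binding curves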
T2 construct: also called adeno-associated virus serotype 2
Experimental: as §1

[3] = biological target: T3, AAV9 (adeno-associated virus 9); assay: SPR, AAV amine-coupled to CM5 chip;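 further: nanobodies flowed as analyte at seven concentrations spanning 1–100 nM over immobilized AAV (500–800 RU), kinetic constants derived by fitting the binding curves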
T3 construct: also called adeno-associated virus serotype 9
Experimental: as §1

[4] = biological target: T4, AAV5 (adeno-associated virus 5); assay: SPR, AAV amine-coupled to CM5 chip;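 further: nanobodies flowed as analyte at seven concentrations spanning 1–100 nM over immobilized AAV (500–800 RU), kinetic constants derived by fitting the binding curves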
T4 construct: also called adeno-associated virus serotype 5
Experimental: as §1

[5] = biological target: T5, AAV8 (adeno-associated virus serotype 8); assay: SPR, AAV on CM5 chip;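 further: surface plasmon resonance with AAV amine-coupled to the chip as ligand, nanobodies injected as analyte over a concentration series, rate constants and affinity fitted from binding curves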
T5 construct: also called adeno-associated virus serotype 8
Experimental: as §1

[6] = biological target: T6, AAV9 (adeno-associated virus serotype 9); assay: SPR, AAV on CM5 chip;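 further: surface plasmon resonance with AAV amine-coupled to the chip as ligand, nanobodies injected as analyte over a concentration series, rate constants and affinity fitted from binding curves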
T6 construct: also called adeno-associated virus serotype 9
Experimental: as §1

[7] = biological target: T7, AAV5 (adeno-associated virus serotype 5); assay: SPR, AAV on CM5 chip;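 further: surface plasmon resonance with AAV amine-coupled to the chip as ligand, nanobodies injected as analyte over a concentration series, rate constants and affinity fitted from binding curves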
T7 construct: also called adeno-associated virus serotype 5
Experimental: as §1

| Binder | Kd [1] [nM] | koff [1] [s⁻¹] | kon [1] [M⁻¹ s⁻¹] | Kd [2] [nM] | koff [2] [s⁻¹] | kon [2] [M⁻¹ s⁻¹] | Kd [3] [nM] | koff [3] [s⁻¹] | kon [3] [M⁻¹ s⁻¹] | Kd [4] [nM] | koff [4] [s⁻¹] | Kd [5] [nM] | koff [5] [s⁻¹] | kon [5] [M⁻¹ s⁻¹] | Kd [6] [nM] | koff [6] [s⁻¹] | kon [6] [M⁻¹ s⁻¹] | Kd [7] [nM] | koff [7] [s⁻¹] | kon [7] [M⁻¹ s⁻¹] | also measured |
| --- | --- | --- | --- | --- | --- | --- | --- | --- | --- | --- | --- | --- | --- | --- | --- | --- | --- | --- | --- | --- | --- |
| A4-077 (VHH) VHH: VQLQESGGGLVQPGGSLRLSCAASGSMFSINIMGWYRQAPGKQREFVATITRGGSTNYADFVKGRFTISRDNAKNTVYLQMNSLRPEDTAVYYCHVDELRDSSWTTSNLWGQGTQVTVSS | 2.92 | 0.00038 | 130000 | 4.63 | 0.00046 | 99300 | 1.87 | 0.00037 | 198000 | 0.987 | 0.00019 | – | – | – | – | – | – | – | – | – | kon [4]: 193000 M⁻¹ s⁻¹ |
| A4-083 (VHH) VHH: VQLQESGGGLVQTGGSLKLSCAASGSRFSLNTMGWYRQAPRKQREFVAAVTRGGNTNYGDFVKGRFTISRDNAKNTVYLQMNSLRPEDTAVYYCHVDELRESSWTTSNLWGQGTQVTVSS | 42.4 | 0.00737 | 174000 | 944 | 0.00344 | 3640 | 92.3 | 0.00657 | 71200 | 31 | 0.00287 | – | – | – | – | – | – | – | – | – | kon [4]: 92500 M⁻¹ s⁻¹ |
| A4-088 (VHH) VHH: VQLQESGGGLVQTGGSLRLSCAASGSRFSLNTMGWYRQAPGKQRELVAAVTRGGNTNYGDFVKGRFTISRDNAKNTVYLQMNSLRPEDTAVYYCHVDELRESSWTTSNLWGQGTQVTVSS | 538 | 0.00454 | 8440 | 2420 | 0.00993 | 4100 | 234 | 0.00177 | 7570 | 201 | 0.00146 | – | – | – | – | – | – | – | – | – | kon [4]: 7260 M⁻¹ s⁻¹ |
| A4-089 (VHH) VHH: VQLQESGGGLVQPGGSLRLSCAASGSNFSINTMGWYRQAPGKQRELVATFTRAGNTNYADSVKGRFTISRDNGKNTVYLQMNSLRPEDTAVYYCHVDEVRDSSWTTSNLWGQGTQVTVSS | 4.48 | 0.00054 | 121000 | 4.28 | 0.0008 | 187000 | 2.29 | 0.00041 | 179000 | 163 | 0.00099 | – | – | – | – | – | – | – | – | – | kon [4]: 6080 M⁻¹ s⁻¹ |
| A4-090 (VHH) VHH: VQLQESGGGLVQPGGSLRLSCVASGSRFIINTMGWYRQAPGKQRELVATFTRGGNTNYAESVKGRFTISRDNGKSTVYLQMNSLRPEDTAVYYCHVDEVRESTWTTSNLWGQGTQVTVSS | 14.5 | 0.00109 | 75300 | 6.83 | 0.00136 | 199000 | 24.9 | 0.0015 | 60400 | 121 | 0.00186 | – | – | – | – | – | – | – | – | – | kon [4]: 15300 M⁻¹ s⁻¹ |
| A4-092 (VHH) VHH: VQLQESGGGLVQTGGSLRLSCLASGSIFSINTMGWYRQRAGKQRELVATVTRAGSTNYADSVKGRFTISRDNAKNTVYLQMNSLRPEDTAVYYCHVDEIRESSWTTSNLWGQGTQVTVSS | 0.106 | 2e-05 | 188000 | 1.09 | 6e-05 | 55100 | 1.06 | 9e-05 | 84900 | 0.194 | 1e-05 | – | – | – | – | – | – | – | – | – | kon [4]: 51600 M⁻¹ s⁻¹ |
| A4-093 (VHH) VHH: VQLQESGGGLVQTGGSLRLSCAASGSIFIINTMGWYRQRAGKQRELVATVTRGGSTNYADSVKGRFTISRDNAKNTVYLQMNTLRPEDTAVYYCHVDELRQSSWTTSNLWGQGTQVTVSS | 11.8 | 0.00196 | 166000 | 46 | 0.00103 | 22400 | 15.5 | 0.0011 | 70800 | 8.21 | 0.00114 | – | – | – | – | – | – | – | – | – | kon [4]: 139000 M⁻¹ s⁻¹ |
| A4-099 (VHH) VHH: VQLQESGGGLVQTGGSLRLSCAASGSSFSINTMGWYRQAPGKWRELVAAVTRGGDTNYAESVKGRFTISRDNGKNTVYLQMNSLRPEDTAVYYCHIDEIRESSWTTSNLWGQGTQVTVSS | 2.57 | 0.0005 | 194000 | 1.06 | 0.00021 | 197000 | 0.203 | 3e-05 | 148000 | 4.19 | 0.00041 | – | – | – | – | – | – | – | – | – | kon [4]: 98000 M⁻¹ s⁻¹ |
| A4-103 (VHH) VHH: VQLQESGGGLVQPGGSLRLSCAASGSIFSLNAMGWYRQAPGKQRELVATITRGGSTNYADSVKGRFTISRDNAKNTVYLQMNSLRPEDTAVYYCHVDEVRESIWTTSNLWGQGTQVTVSS | – | – | – | – | – | – | – | – | – | – | – | 35.1 | 0.00182 | 51900 | 81.2 | 0.00107 | 13200 | 26.9 | 0.00137 | 51000 | – |
| A4-101 (VHH) VHH: VQLQESGGGLVQPGGSLRLSCAASGSRFSINIMGWYRQAPGKQRELVASVTRGGTTNYADSVKGRFTISRDNPKNTIYLQMNSLRPEDTAVYYCHVDEIRESTWTTSNLWGQGTQVTVSS | – | – | – | – | – | – | – | – | – | – | – | 162 | 0.00129 | 7970 | 13.4 | 9e-05 | 6700 | 70.8 | 0.00034 | 4800 | – |
| A4-102 (VHH) VHH: VQLQESGGGLVQPGGSLRLSCAASGSHFTINSVGWYRQAPGKQRELVAPVTRGGTTNYADFVKGRFTISRDNAKNTVYLQMNSLRPEDTAVYYCHVDELRDSSWTTSNLWGQGTQVTVSS | – | – | – | – | – | – | – | – | – | – | – | 7.86 | 0.0006 | 76300 | 30.8 | 0.00465 | 151000 | 40.4 | 0.007 | 173000 | – |
| A4-104 (VHH) VHH: VQLQESGGGLVQPGGSLRLSCAASGSIFSLNSMGWYRQAPGKQRELVATITSGGSTNYAGSVKGRFTISRDNAKNTVYLQMNNLQPEDTAVYYCHVDEVRESSWTTSNLWGQGTQVTVSS | – | – | – | – | – | – | – | – | – | – | – | 10.5 | 3e-05 | 2860 | 451 | 0.00093 | 2060 | 44 | 0.00037 | 8420 | – |
| A4-106 (VHH) VHH: VQLQESGGGLVQPGGSLRLSCIASGSIFSLNAMGWYRQAPGKQRELVATITSGGSTNYADSVKGRFTISRDNAKNTAYLQMNNLQPEDTAVYYCHVDEVRESIWTTSNLWGQGTQVTVSS | – | – | – | – | – | – | – | – | – | – | – | 16 | 0.00191 | 120000 | 1.65 | 0.00011 | 66600 | 2.12 | 0.00042 | 198000 | – |
| A4-107 (VHH) VHH: VQLQESGGGLVQPGGSLRLSCIASGSGFSINTVGWYRQAPAKQRELVATLTRGGSTNYADSVKGRFTISRDNPKNTVYLQMNSLRPEDTAVYYCHVDEVRQSSWTTSNIWGQGTQVTVSS | – | – | – | – | – | – | – | – | – | – | – | 848 | 0.00101 | 1190 | 1680 | 0.00356 | 2120 | 703 | 0.00353 | 5020 | – |
| A4-109 (VHH) VHH: VQLQESGGGLVQAGGSLRLSCAASGTIFSLNVMGWYRQAPGKQRELVASVTRGGNTNYADSVKGRFTISRDNAKTTVYLQMNSLRPEDTAVYYCHVDELRDSTWTTSNLWGQGTQVTVSS | – | – | – | – | – | – | – | – | – | – | – | 2.27 | 0.00035 | 154000 | 42.4 | 0.00071 | 16800 | 3.74 | 0.00022 | 58800 | – |
| A4-110 (VHH) VHH: VQLQESGGGLVQPGGSLRLSCFASGTNFSINVVGWYRQAPGKQRELVATITRGGSTNYAESVKGRFTISRDNAKNTVYLQMNNLRPEDTAVYYCHLDEVRDSSWTTSNLWGQGTQVTVSS | – | – | – | – | – | – | – | – | – | – | – | 860 | 0.00596 | 6930 | 347 | 0.0014 | 4040 | 37.8 | 0.00035 | 9270 | – |
| A4-108 (VHH) VHH: VQLQESGGGLAQPGGSLRLSCLASGSGFSINTMGWYRQAPPKWRELVATVTRGGSTNYAGSVKGRFTISRDNPKNTVYLQMNSLRPEDTAVYYCHLDEVRQSTWTTSNIWGQGTQVTVSS | – | – | – | – | – | – | – | – | – | – | – | 7.94 | 0.00085 | 107000 | 3.54 | 0.00061 | 172000 | 7.12 | 0.00105 | 148000 | – |
| A4-112 (VHH) VHH: VQLQESGGGLVQTGGSLRLSCIASGSIFSINTVGWYRQAPPKQRELVATVTRAGSTWYAGSVKGRFTISRDNAKNTIYLQMNTLRPEDTAVYYCHVDEVRQSTWTTSNIWGQGTQVTVSS | – | – | – | – | – | – | – | – | – | – | – | 1.11 | 0.00021 | 188000 | 36.6 | 0.0052 | 142000 | 31.6 | 0.00412 | 130000 | – |

Reference: patent US20260193326A1 (published 2026)
